Source: US20250027068

B1: PRT-645 (protein)
chain: MQITSVWTKGVTPLTPEQFRYNNEDVIHAPYLAHQGWYDITKAFDGKDNLLCGAATAGNMLHWWFDQNKTEIEAYLSKHPEKQKIIFNNQELFDLKAAIDTKDSQTNSQLFNYFRDKAFPNLSARQLGVMPDLVLDMFINGYYLNVFKTQSTDVNRPYQDKDKRGGIFDAVFTRGDQTTLLTARHDLKNKGLNDISTIIKQELTEGRALALSHTYANVSISHVINLWGADFNAEGNLEAIYVTDSDANASIGMKKYYVGYNKSGRVAISAYKITDENIGAQVLGLFTLSSGKDIWQKLSLEHHHHHH
B2: PRT-649 (protein)
chain: MQITSVWTKGVTPLTPEQFRYNNEDVIHAPYLAHQGWYDITKAFDGKDNLLCGAATAGNMLHWWFDQNKTEIEAYLSKHPEKQKIIFNNQYLFDLKAAIDTKDSQTNSQLFNYFRDKAFGNLSARQLGVMPDLVLDMFINGYKLKVNKTQSTDVNRPYQKPDNFGGIFDAVFTRGDQTTLLTARHDLKNKGLNDISTIIKQELTEGRALALSHTYANVSISHVINLWGADFNAEGNLEAIYVTDSDANASIGMKKYFVGINAHGHVAISAKKIEGENIGAQVLGLFTLSSGKDIWQKLSLEHHHHHH
B3: PRT-631 (protein)
chain: MQITSVWTKGVTPLTPEQFRYNNEDVIHAPYLAHQGWYDITKAFDGKDNLLCGAATAGNMLHWWFDQNKEEIDNYLKKYPDKQKIIFNNQELFDLKAAIDTKDSQTNSQLFNYFRDKAFPNLSARQLGVMPDLVLDMFINGYYLNVFKTQSTDVNRPYQDKDKRGGIFDAVFTRGDQTTLLTARHDLKNKGLNDISTIIKQELTEGRALALSHTYANVSISHVINLWGADFNAEGNLEAIYVTDSDANASIGMKKYFVGINAHGHVAISAKKIEGENIGAQVLGLFTLSSGKEIWKKLSLEHHHHHH
B4: PRT-626 (protein)
chain: MQITSVWTKGVTPLTPEQFRYNNEDVIHAPYLAHQGWYDITKAFDGKDNLLCGAATAGNMLHWWFDQNKTEIEAYLSKHPEKQKIIFNNQELFDLKAAIDTKDSQTNSQLFNYFRDKAFPNLSARQLGVMPDLVLDMFINGYYLNVFKTQSTDVNRPPDDKDKRGGIFDHVFNRGDQTTLLTARHDLKNKGLNDISTIIKQELTEGRALALSHTYANVSISHVINLWGADFNAEGNLEAIYVTDSDANASIGMKKYFVGINAHGHVAISAKKIEGENIGAQVLGLFTLSSGKDIWQKLSLEHHHHHH
B5: PRT-604 (protein)
chain: MQITSVWTKGVTPLTPEQFRYNNEDVIHAPYLAHQGWYDITKAFDGKDNLLCGAATAGNMLHWWFDQNKTEIEAYLSKHPEKQKIIFNNQELFDLKAAIDTKDSQTNSQLFNYFRDKAFPNLSARQLGVMPDLVLDMFINGYYLNVFKTQSTDVNRPYQDKDKRGGIFDDVFGKGDQTTLLTARHDLKNKGLNDISTIIKQELTEGRALALSHTYANVSISHVINLWGADFNAEGNLEAIYVTDSDANASIGMKKYFVGINAHGHVAISAKKIEGENIGAQVLGLFTLSSGKDIWQKLSLEHHHHHH

Biological target: pooled human IgG (human IgG1,2,3 and 4)

Row | Protein | Enzyme activity endpoint: Fab′2 | Enzyme activity endpoint: Fc | Enzyme activity endpoint: IgG | Enzyme activity endpoint: scIgG
1 | B1 | 683 ng/µL | 455 ng/µL | 0 ng/µL | 236 ng/µL
2 | B2 | 657 ng/µL | 32 ng/µL | 886 ng/µL | 24 ng/µL
3 | B3 | 749 ng/µL | 419 ng/µL | 0 ng/µL | 0 ng/µL
4 | B4 | 569 ng/µL | 388 ng/µL | 0 ng/µL | 225 ng/µL
5 | B5 | 51 ng/µL | 276 ng/µL | 396 ng/µL | 964 ng/µL
